Test results published in patent US20140030278A1 (published 2014).
Each block holds one binder with its values, some of them ahead of it.

Tests used:
[1] = target: T1, Recombinant human TNF-alpha (human, UniProt P01375 77-233); experiment: ELISA of unbound rhTNF-alpha after pre-incubation; printed as 4.095e-009 g/ml
[2] = target: T1, Recombinant human TNF-alpha; experiment: ELISA of unbound rhTNF-alpha after pre-incubation; printed as 6.116e-009 g/ml

T1 sequence (P01375 77-233): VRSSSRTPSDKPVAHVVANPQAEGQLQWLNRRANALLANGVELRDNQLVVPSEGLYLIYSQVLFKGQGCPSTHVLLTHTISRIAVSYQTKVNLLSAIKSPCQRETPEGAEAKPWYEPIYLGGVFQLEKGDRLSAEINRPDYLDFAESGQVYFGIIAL

IC50 [1]: 4.09 ng/mL
B1: etanercept (ENBREL®), non-PEGylated (Fc fusion)
chain: LPAQVAFTPYAPEPGSTCRLREYYDQTAQMCCSKCSPGQHAKVFCTKTSDTVCDSCEDSTYTQLWNWVPECLSCGSRCSSDQVETQACTREQNRICTCRPGWYCALSKQEGCRLCAPLRKCRPGFGVARPGTETSDVVCKPCAPGTFSNTTSSTDICRPHQICNVVAIPGNASMDAVCTSTSPTRSMAPGAVHLPQPVSTRSQHTQPTPEPSTAPSTSFLLPMGPSPPAEGSTGDEPKSCDKTHTCPPCPAPELLGGPSVFLFPPKPKDTLMISRTPEVTCVVVDVSHEDPQVKFNWYVDGVQVHNAKTKPREQQYNSTYRVVSVLTVLHQNWLDGKEYKCKVSNKALPAPIEKTISKAKGQPREPQVYTLPPSREEMTKNQVSLTCLVKGFYPSDIAVEWESNGQPENNYKTTPPVLDSDGSFFLYSKLTVDKSRWQQGNVFSCSVMHEALHNHYTQKSLSLSPGK

IC50 [2]: 6.12 ng/mL
B2: PEG20-etanercept (10 eq) (Fc fusion)
chain: B1 chain
modifications: 20 KDa PEG (PEG20) conjugated via NHS-ester PEG reagent at 10 times molar excess; sites not stated
